Values joined by “and” are separate entries in the source; they are usually repeats but may differ in a detail not shown here. Identical values can stand only once.
T1: FcγRIIa (Pichia pastoris produced) (UniProt P12318 34-217, limits assumed)
T1 construct: also called CD32A
T1 sequence (looked up): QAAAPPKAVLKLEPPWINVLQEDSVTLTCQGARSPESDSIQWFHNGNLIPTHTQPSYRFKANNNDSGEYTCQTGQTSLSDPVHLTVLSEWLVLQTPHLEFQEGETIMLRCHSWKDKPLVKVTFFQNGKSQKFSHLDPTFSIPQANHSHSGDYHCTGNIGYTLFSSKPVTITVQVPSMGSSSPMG

T2: FcγRIIA H (UniProt P12318 34-217, limits assumed)
T2 construct: also called FcgRIIA H
T2 sequence (looked up): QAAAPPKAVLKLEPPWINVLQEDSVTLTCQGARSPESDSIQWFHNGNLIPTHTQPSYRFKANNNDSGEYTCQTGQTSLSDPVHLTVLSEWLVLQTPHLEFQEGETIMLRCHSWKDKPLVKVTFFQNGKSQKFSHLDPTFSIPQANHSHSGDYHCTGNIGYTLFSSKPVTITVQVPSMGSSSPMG

T3: FcγRIIb (Pichia pastoris produced) (UniProt P31994 43-217, limits assumed)
T3 construct: also called FcgRIIB; CD32B
T3 sequence (looked up): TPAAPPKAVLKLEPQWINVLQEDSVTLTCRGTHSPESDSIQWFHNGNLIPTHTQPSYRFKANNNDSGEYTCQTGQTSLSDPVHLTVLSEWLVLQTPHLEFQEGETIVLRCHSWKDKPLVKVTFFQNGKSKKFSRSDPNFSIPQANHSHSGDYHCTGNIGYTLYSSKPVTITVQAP


Legend:
[1] = target: T1, FcγRIIa (Pichia pastoris produced); assay: ELISA-type plate assay, FcγR coated, antibody dimerized with AP-conjugated goat anti-human IgG F(ab')2, RFU readout
Procedure: (§1) Fcγ receptor binding assays were carried out as described (Shields, et al. (2001) J. Biol. Chem. 276:6591-6604) with minor modifications. High protein binding 96-well plates (Corning Costar) were coated with 100 μL per well of Fcγ receptor solutions in PBS at the following concentrations: 1 μg/mL for both FcγRI (R&D Systems) and FcγRIIa (Pichia pastoris produced), 2 μg/mL for FcγRIIb (P. pastoris produced), 0.8 μg/mL for FcγRIIIa-F158, and 0.4 μg/mL for FcγRIIIa-V158 (both P. pastoris produced). All Pichia pastoris produced receptors were expressed and purified as described (Li, et al. (2006) Nature Biotechnology 24:210-215). Monomeric antibody samples added to the FcγRI plate were serially diluted in assay diluent (1×PBS, 1% BSA, and 0.05% Tween20) and 100 μL, per well was added to the plate. Antibody samples prepared for the remaining receptors require a one hour dimerization step with half molar ratio of goat anti-human IgG F(ab′)2 F(ab′)2 that is conjugated with alkaline phosphatase for detection. These dimerized F(ab′)2/antibody complexes were also serially diluted and 100 μL per well were added to the remaining receptor plates and all plates were incubated for one hour at room temperature. FcγRI bound sample antibody was detected using the same goat anti-human IgG F(ab′)2 alkaline phosphatase conjugated F(ab′)2. Sample antibody binding was quantified by measuring excitation at 340 nm and emission at 465 nm after 18 hour incubation with SuperPhos, 4-MUP Fluorescence AP Substrate Detection System (Virolabs).

[2] = target: T2, FcγRIIA H; assay: FcγR affinity assay 'as described in Example 7', n = 3; printed as Affinity (nM) ± STDEV
Procedure: as §1

[3] = target: T3, FcγRIIb (Pichia pastoris produced); assay: as above
Procedure: as §1

[4] = target: T4, wild-type human PCSK9 (human, UniProt Q8NBP7 31-692, limits assumed); assay: SPR (Biacore T100), antibody captured by anti-human Fc, PCSK9 as analyte, 1:1 model
T4 construct: also called PCSK9 antigen
Procedure: (§2) The CM5 chip was immobilized on all flowcells with mouse anti-human IgG (Fc specific) according to the Biacore Human Antibody Capture Kit (Cat# BR-1008-39) to ˜7000RU. Anti-PCSK9 antibodies were captured on the chip to ˜500RU followed by analyte injections of wild-type human PCSK9 from 64.1 nM to 2.0 nM. Each flowcell was regenerated between each analyte injection with 3M MgCl for 40 seconds at 10 uL/min. Data was analyzed with Biacore T100 Evaluation Software using the 1:1 binding model using at least 5 point concentration range sensogram.

[5] = target: T5, FcγRIIIa-F158 (Pichia pastoris produced) (UniProt P08637 17-208, limits assumed); assay: ELISA-type plate assay, FcγR coated, antibody dimerized with AP-conjugated goat anti-human IgG F(ab')2, RFU readout
T5 construct: also called FcγRIIIA LF; FcgRIIIA LF
T5 sequence (P08637 17-208 limits assumed): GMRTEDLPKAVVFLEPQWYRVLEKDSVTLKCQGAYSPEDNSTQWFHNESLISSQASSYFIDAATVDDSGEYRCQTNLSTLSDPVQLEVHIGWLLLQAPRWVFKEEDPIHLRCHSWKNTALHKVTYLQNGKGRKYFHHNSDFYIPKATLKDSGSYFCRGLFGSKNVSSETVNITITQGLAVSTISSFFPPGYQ
Procedure: as §1

[6] = target: T3, FcγRIIb (Pichia pastoris produced); assay: as above
Procedure: as §1

[7] = target: T4, wild-type human PCSK9; assay: SPR (Biacore T100), average KD of the two 1F11 runs
Procedure: as §2

[8] = target: T6, FcγRIIIa-V158 (Pichia pastoris produced) (UniProt P08637 17-208, limits assumed); assay: ELISA on plate-coated receptor; antibody dimerized with anti-human IgG F(ab')2-AP; ELISA IC50, YGLY23258 (dimer), Table 5 experiment
T6 construct: also called FcγRIIIA LV; FcgRIIIA LV
T6 sequence (P08637 17-208 F176V limits assumed): as the sequence (P08637 17-208 limits assumed) above, with F160V counted along it
Procedure: as §1, with “These dimerized F(ab′)2/antibody complexes were also serially diluted and 100 μL per well were added to the remaining receptor plates and all plates were incubated for one hour at room temperature.” left out

[9] = target: T5, FcγRIIIa-F158 (Pichia pastoris produced); assay: as above
Procedure: as §1, with “These dimerized F(ab′)2/antibody complexes were also serially diluted and 100 μL per well were added to the remaining receptor plates and all plates were incubated for one hour at room temperature.” left out

[10] = target: T6, FcγRIIIa-V158 (Pichia pastoris produced); assay: summary of the FcγR ELISAs
Procedure: as §1

[11] = target: T5, FcγRIIIa-F158 (Pichia pastoris produced); assay: summary of the FcγR ELISAs
Procedure: as §1

[12] = target: T7, FcγRI (R&D Systems) (UniProt P12314 16-288); assay: summary of the FcγR ELISAs
T7 construct: Bought reagent, coated on the plate at 1 µg/mL; also called Fc gamma receptor I; CD64
T7 sequence (P12314 16-288 limits assumed): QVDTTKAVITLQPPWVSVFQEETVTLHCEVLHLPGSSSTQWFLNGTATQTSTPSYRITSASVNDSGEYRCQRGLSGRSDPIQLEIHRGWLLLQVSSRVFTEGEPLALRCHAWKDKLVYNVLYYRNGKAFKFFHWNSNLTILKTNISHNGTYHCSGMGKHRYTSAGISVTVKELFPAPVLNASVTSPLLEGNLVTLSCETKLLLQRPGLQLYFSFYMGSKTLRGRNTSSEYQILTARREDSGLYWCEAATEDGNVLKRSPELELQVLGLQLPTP
Procedure: as §1

[13] = target: T6, FcγRIIIa-V158 (Pichia pastoris produced); assay: summary of the FcγR ELISAs; Table 8 summary: range of fold decrease over the ELISA experiments
Procedure: as §1, with “These dimerized F(ab′)2/antibody complexes were also serially diluted and 100 μL per well were added to the remaining receptor plates and all plates were incubated for one hour at room temperature.” left out

[14] = target: T5, FcγRIIIa-F158 (Pichia pastoris produced); assay: as above
Procedure: as §1, with “These dimerized F(ab′)2/antibody complexes were also serially diluted and 100 μL per well were added to the remaining receptor plates and all plates were incubated for one hour at room temperature.” left out

EC50 (read off the curve) [1] [µg/mL]	Kd [2] [nM]	Kd [3] [nM]	Kd [4]	koff [4]	kon [4]	EC50 (read off the curve) [5] [µg/mL]	EC50 (read off the curve) [6] [µg/mL]	Kd [7] [nM]	IC50 [8] [µg/mL]	IC50 [9] [µg/mL]	decreased affinity fold vs wildtype parent antibody produced in GS 5.0 [10] [fold]	decreased affinity fold vs wildtype parent antibody produced in GS 5.0 [11] [fold]	decreased affinity fold vs wildtype parent antibody produced in GS 5.0 [12] [fold]	decreased affinity fold vs wildtype parent antibody produced in GS 5.0 [13] [fold]	decreased affinity fold vs wildtype parent antibody produced in GS 5.0 [14] [fold]	Binder
~0.03	892	545	3.29 nM and 2.3 nM	0.000499 s⁻¹ and 0.000407 s⁻¹	152000 M⁻¹ s⁻¹ and 177000 M⁻¹ s⁻¹	~0.02	~0.4	2.8								1F11 wildtype (parent) humanized anti-PCSK9 monoclonal IgG1 antibody (antibody, Produced in glycoengineered Pichia pastoris GFI5.0 (strain YGLY21351); also called 1F11 IgG1 GS5.0; YGLY21351) heavy: not shown light: DIQMTQSPSSLSASVGDRVTITCKASQNVGTNVVWYQQKPGKAPKALIHSASYRYSGVPSRFSGSGSGTDFTLTISSLQPEDFATYYCQQYKTYPYTFGQGTKVEIKRTVAAPSVFIFPPSDEQLKSGTASVVCLLNNFYPREAKVQWKVDNALQSGNSQESVTEQDSKDSTYSLSSTLTLSKADYEKHKVYACEVTHQGLSSPVTKSFNRGEC
									0.13	0.94	2 to 6	8 to 60	4	2 to 6	8 to 60	1F11 IgG1 F243A/V264A double mutein anti-PCSK9 antibody (antibody, sialylated N-glycans; also called 1F11 DM; YGLY23258) heavy: not shown light: DIQMTQSPSSLSASVGDRVTITCKASQNVGTNVVWYQQKPGKAPKALIHSASYRYSGVPSRFSGSGSGTDFTLTISSLQPEDFATYYCQQYKTYPYTFGQGTKVEIKRTVAAPSVFIFPPSDEQLKSGTASVVCLLNNFYPREAKVQWKVDNALQSGNSQESVTEQDSKDSTYSLSSTLTLSKADYEKHKVYACEVTHQGLSSPVTKSFNRGEC

— patent US20140086916A1 (Merck Sharp & Dohme, published 2014)
